# Test results taken from publication PMC3409459, “Absorption, distribution, metabolism and excretion of peginesatide, a novel erythropoiesis-stimulating agent, in rats” (Xenobiotica; the Fate of Foreign Compounds in Biological …, 2011).
# Experiment: Tissue distribution of radioactivity by LSC following combustion, albino rats
# Format: in vivo, male Sprague-Dawley (albino) rats
# Details: for Concentration of the radioactivity, Pituitary / Concentration of the radioactivity, Plasma / Concentration of the radioactivity, Skeletal muscle / Concentration of the radioactivity, Skin / Concentration of the radioactivity, Spinal cord / Concentration of the radioactivity, Spleen / Concentration of the radioactivity, Stomach / Concentration of the radioactivity, Submandibular lymph nodes / Concentration of the radioactivity, Testes / Concentration of the radioactivity, Thymus / Concentration of the radioactivity, Thyroid gland / Concentration of the radioactivity, Urinary bladder / Concentration of the radioactivity, Adrenals / Concentration of the radioactivity, Blood / Concentration of the radioactivity, Bone (femur) / Concentration of the radioactivity, Bone marrow / Concentration of the radioactivity, Brain / Concentration of the radioactivity, Eyes / Concentration of the radioactivity, Fat / Concentration of the radioactivity, Harderian glands / Concentration of the radioactivity, Heart / Concentration of the radioactivity, Intestine / Concentration of the radioactivity, Kidneys / Concentration of the radioactivity, Liver / Concentration of the radioactivity, Lungs / Concentration of the radioactivity, Pancreas: mean ± SD, n=3; for tissue to plasma ratios: single IV 5 mg·kg^−1
# Method: Total captured radioactivity was subsequently measured via LSC.
# Male Sprague-Dawley (albino) rats (n = 21; three per time point) were administered a single IV dose of 5 mg·kg^−1 [^14C]-peginesatide (27.5 μCi/kg) and tissue concentrations of radioactivity determined at 0.25, 6, and 24 h, and 7,14,30 and 60 days following dosing. Similarly, male Long Evans (pigmented) rats (n = 21; three per time point) were administered a single IV dose of 5 mg-kg^−1 [^14C]-peginesatide and plasma, skin, and eye concentrations of radioactivity were measured at the various time points through 60 days after dosing. At each time point, blood was collected, the animals sacrificed, and tissues excised. Tissues collected from the Sprague-Dawley rats included blood, plasma, adrenals, bone marrow, brain, eyes, fat, femur, Harderian glands, heart, hypophysis, intestine, kidneys, lungs, liver, pancreas, skeletal muscle, skin, spinal cord, spleen, stomach, submaxillary glands, testes, thymus, thyroid gland, and urinary bladder. Plasma, eyes, non-pigmented skin, and pigmented skin were collected from Long Evans rats. All tissue samples were measured for radioactivity by LSC following combustion. The liver and intestine were first homogenized in distilled water (20% w/v) prior to analysis. The concentration of radioactivity in the blood, plasma, and tissues was calculated and expressed as ug equiv·g^-1 or mLbased on the LSC counts and the specific activity of the dosing solution.
# [1] = 60 Days after single IV 5 mg·kg^−1, LSC
# [2] = 0.25 h after single IV 5 mg·kg^−1, LSC
# [3] = 6 h after single IV 5 mg·kg^−1, LSC
# [4] = 24 h after single IV 5 mg·kg^−1, LSC
substance,measurement,setting,value
Peginesatide,"Concentration of the radioactivity, Pituitary",[1],4.32 ± 0.289 μg equiv·g^−1 or mL
same,"Concentration of the radioactivity, Plasma",[1],0.232 ± 0.042 μg equiv·g^−1 or mL
same,"Concentration of the radioactivity, Skeletal muscle",[1],0.085 ± 0.021 μg equiv·g^−1 or mL
same,"Concentration of the radioactivity, Skin",[1],0.394 ± 0.080 μg equiv·g^−1 or mL
same,"Concentration of the radioactivity, Spinal cord",[1],0.036 ± 0.018 μg equiv·g^−1 or mL
same,"Concentration of the radioactivity, Spleen",[1],3.40 ± 0.480 μg equiv·g^−1 or mL
same,"Concentration of the radioactivity, Stomach",[1],0.590 ± 0.242 μg equiv·g^−1 or mL
same,"Concentration of the radioactivity, Submandibular lymph nodes",[1],8.74 ± 1.22 μg equiv·g^−1 or mL
same,"Concentration of the radioactivity, Testes",[1],5.10 ± 2.17 μg equiv·g^−1 or mL
same,"Concentration of the radioactivity, Thymus",[1],1.15 ± 0.155 μg equiv·g^−1 or mL
same,"Concentration of the radioactivity, Thyroid gland",[1],8.03 ± 1.45 μg equiv·g^−1 or mL
same,"Concentration of the radioactivity, Urinary bladder",[1],0.967 ± 0.188 μg equiv·g^−1 or mL
same,"Concentration of the radioactivity, Adrenals",[2],8.45 ± 0.517 μg equiv·g^−1 or mL
same,"Concentration of the radioactivity, Blood",[2],80.9 ± 1.90 μg equiv·g^−1 or mL
same,"Concentration of the radioactivity, Bone (femur)",[2],1.95 ± 0.128 μg equiv·g^−1 or mL
same,"Concentration of the radioactivity, Bone marrow",[2],9.66 ± 0.367 μg equiv·g^−1 or mL
same,"Concentration of the radioactivity, Brain",[2],1.18 ± 0.030 μg equiv·g^−1 or mL
same,"Concentration of the radioactivity, Eyes",[2],0.346 ± 0.029 μg equiv·g^−1 or mL
same,"Concentration of the radioactivity, Fat",[2],0.861 ± 0.096 μg equiv·g^−1 or mL
same,"Concentration of the radioactivity, Harderian glands",[2],1.15 ± 0.357 μg equiv·g^−1 or mL
same,"Concentration of the radioactivity, Heart",[2],6.33 ± 0.512 μg equiv·g^−1 or mL
same,"Concentration of the radioactivity, Intestine",[2],1.47 ± 0.158 μg equiv·g^−1 or mL
same,"Concentration of the radioactivity, Kidneys",[2],11.2 ± 1.48 μg equiv·g^−1 or mL
same,"Concentration of the radioactivity, Liver",[2],7.03 ± 0.613 μg equiv·g^−1 or mL
same,"Concentration of the radioactivity, Lungs",[2],8.46 ± 0.824 μg equiv·g^−1 or mL
same,"Concentration of the radioactivity, Pancreas",[2],2.56 ± 0.036 μg equiv·g^−1 or mL
same,"Concentration of the radioactivity, Pituitary",[2],13.2 ± 1.08 μg equiv·g^−1 or mL
same,"Concentration of the radioactivity, Plasma",[2],131 ± 3.86 μg equiv·g^−1 or mL
same,"Concentration of the radioactivity, Skeletal muscle",[2],0.569 ± 0.100 μg equiv·g^−1 or mL
same,"Concentration of the radioactivity, Skin",[2],0.376 ± 0.103 μg equiv·g^−1 or mL
same,"Concentration of the radioactivity, Spinal cord",[2],0.909 ± 0.289 μg equiv·g^−1 or mL
same,"Concentration of the radioactivity, Spleen",[2],4.62 ± 0.185 μg equiv·g^−1 or mL
same,"Concentration of the radioactivity, Stomach",[2],1.32 ± 0.257 μg equiv·g^−1 or mL
same,"Concentration of the radioactivity, Submandibular lymph nodes",[2],2.57 ± 0.038 μg equiv·g^−1 or mL
same,"Concentration of the radioactivity, Testes",[2],1.14 ± 0.083 μg equiv·g^−1 or mL
same,"Concentration of the radioactivity, Thymus",[2],0.669 ± 0.115 μg equiv·g^−1 or mL
same,"Concentration of the radioactivity, Thyroid gland",[2],8.25 ± 1.42 μg equiv·g^−1 or mL
same,"Concentration of the radioactivity, Urinary bladder",[2],2.40 ± 1.32 μg equiv·g^−1 or mL
same,"Concentration of the radioactivity, Adrenals",[3],7.83 ± 1.38 μg equiv·g^−1 or mL
same,"Concentration of the radioactivity, Blood",[3],60.9 ± 4.36 μg equiv·g^−1 or mL
same,"Concentration of the radioactivity, Bone (femur)",[3],1.53 ± 0.555 μg equiv·g^−1 or mL
same,"Concentration of the radioactivity, Bone marrow",[3],8.66 ± 2.79 μg equiv·g^−1 or mL
same,"Concentration of the radioactivity, Brain",[3],0.939 ± 0.015 μg equiv·g^−1 or mL
same,"Concentration of the radioactivity, Eyes",[3],0.779 ± 0.168 μg equiv·g^−1 or mL
same,"Concentration of the radioactivity, Fat",[3],0.923 ± 0.308 μg equiv·g^−1 or mL
same,"Concentration of the radioactivity, Harderian glands",[3],1.91 ± 0.183 μg equiv·g^−1 or mL
same,"Concentration of the radioactivity, Heart",[3],7.71 ± 1.29 μg equiv·g^−1 or mL
same,"Concentration of the radioactivity, Intestine",[3],3.07 ± 0.233 μg equiv·g^−1 or mL
same,"Concentration of the radioactivity, Kidneys",[3],10.6 ± 1.16 μg equiv·g^−1 or mL
same,"Concentration of the radioactivity, Liver",[3],7.51 ± 0.438 μg equiv·g^−1 or mL
same,"Concentration of the radioactivity, Lungs",[3],8.37 ± 1.27 μg equiv·g^−1 or mL
same,"Concentration of the radioactivity, Pancreas",[3],3.83 ± 0.582 μg equiv·g^−1 or mL
same,"Concentration of the radioactivity, Pituitary",[3],13.9 ± 2.71 μg equiv·g^−1 or mL
same,"Concentration of the radioactivity, Plasma",[3],99.6 ± 2.94 μg equiv·g^−1 or mL
same,"Concentration of the radioactivity, Skeletal muscle",[3],0.447 ± 0.037 μg equiv·g^−1 or mL
same,"Concentration of the radioactivity, Skin",[3],1.41 ± 0.175 μg equiv·g^−1 or mL
same,"Concentration of the radioactivity, Spinal cord",[3],0.662 ± 0.070 μg equiv·g^−1 or mL
same,"Concentration of the radioactivity, Spleen",[3],5.51 ± 0.776 μg equiv·g^−1 or mL
same,"Concentration of the radioactivity, Stomach",[3],2.69 ± 0.013 μg equiv·g^−1 or mL
same,"Concentration of the radioactivity, Submandibular lymph nodes",[3],4.25 ± 0.140 μg equiv·g^−1 or mL
same,"Concentration of the radioactivity, Testes",[3],4.01 ± 0.254 μg equiv·g^−1 or mL
same,"Concentration of the radioactivity, Thymus",[3],1.02 ± 0.040 μg equiv·g^−1 or mL
same,"Concentration of the radioactivity, Thyroid gland",[3],10.1 ± 1.79 μg equiv·g^−1 or mL
same,"Concentration of the radioactivity, Urinary bladder",[3],3.53 ± 0.234 μg equiv·g^−1 or mL
same,"Concentration of the radioactivity, Adrenals",[4],10.0 ± 1.15 μg equiv·g^−1 or mL
same,"Concentration of the radioactivity, Blood",[4],39.7 ± 2.51 μg equiv·g^−1 or mL
same,"Concentration of the radioactivity, Bone (femur)",[4],1.16 ± 0.177 μg equiv·g^−1 or mL
same,"Concentration of the radioactivity, Bone marrow",[4],8.50 ± 1.23 μg equiv·g^−1 or mL
same,"Concentration of the radioactivity, Brain",[4],0.646 ± 0.050 μg equiv·g^−1 or mL
same,"Concentration of the radioactivity, Eyes",[4],0.806 ± 0.063 μg equiv·g^−1 or mL
same,"Concentration of the radioactivity, Fat",[4],1.65 ± 0.392 μg equiv·g^−1 or mL
same,"Concentration of the radioactivity, Harderian glands",[4],2.55 ± 0.105 μg equiv·g^−1 or mL
same,"Concentration of the radioactivity, Heart",[4],6.28 ± 0.256 μg equiv·g^−1 or mL
same,"Concentration of the radioactivity, Intestine",[4],3.10 ± 0.144 μg equiv·g^−1 or mL
same,"Concentration of the radioactivity, Kidneys",[4],8.75 ± 1.47 μg equiv·g^−1 or mL
same,"Concentration of the radioactivity, Liver",[4],9.26 ± 0.516 μg equiv·g^−1 or mL
same,"Concentration of the radioactivity, Lungs",[4],7.22 ± 0.464 μg equiv·g^−1 or mL
same,"Concentration of the radioactivity, Pancreas",[4],5.14 ± 0.582 μg equiv·g^−1 or mL
same,"Concentration of the radioactivity, Pituitary",[4],13.7 ± 2.02 μg equiv·g^−1 or mL
same,"Concentration of the radioactivity, Plasma",[4],64.1 ± 5.12 μg equiv·g^−1 or mL
same,"Concentration of the radioactivity, Skeletal muscle",[4],0.584 ± 0.044 μg equiv·g^−1 or mL
same,"Concentration of the radioactivity, Skin",[4],3.29 ± 0.308 μg equiv·g^−1 or mL
same,"Concentration of the radioactivity, Spinal cord",[4],0.442 ± 0.090 μg equiv·g^−1 or mL
same,"Concentration of the radioactivity, Spleen",[4],10.2 ± 1.04 μg equiv·g^−1 or mL
same,"Concentration of the radioactivity, Stomach",[4],3.01 ± 0.168 μg equiv·g^−1 or mL
same,"Concentration of the radioactivity, Submandibular lymph nodes",[4],5.72 ± 0.303 μg equiv·g^−1 or mL
same,"Concentration of the radioactivity, Testes",[4],4.15 ± 0.605 μg equiv·g^−1 or mL
same,"Concentration of the radioactivity, Thymus",[4],1.90 ± 0.201 μg equiv·g^−1 or mL
same,"Concentration of the radioactivity, Thyroid gland",[4],10.2 ± 1.10 μg equiv·g^−1 or mL
same,"Concentration of the radioactivity, Urinary bladder",[4],6.18 ± 0.260 μg equiv·g^−1 or mL
same,tissue to plasma ratios,"after 24 h, in most tissues",> 1
same,tissue to plasma ratios,through at least 24 h after dosing,< 1
